Assay: label from the status in PepcDB records

With “MTKYQETAKAILAAVGGEKNIQHVTHCVTRLRLVLDNDEIVNDQVIKTIPNVIGVMRKNDQYQIILGNDVNNYYNAFLALGHFENTTREFSSQKKSSILEKLIETIAGVITPLIPALLGGGMLKVIGILLPMLGIASSSSQTVAFINFFGDAAYYFMPIMIAYSAASRFKVTPVLAATVGGILLHPAFVTMVAEGKPLSLFGAPVTLASYGSSVIPILIMVFLMQYIERWINKIVPSVMKSFLQPTLIILISGFLALVVVGPLGVIIGKGLSSAMLSIYHVAPWLALSILGAIMPLVVMTGMHWAFAPIFLAASVATPDVLILPAMLASNLAQGAASLAVAVKAKQKQTRQVAFAAGLSALLAGITEPALYGVTLKFKKPLYAAMISGGLVGAYIGLVNIASYTFVVPSIIGLPQYINPQGGNNFSNAVIAAIATIILTFIITWFLGIDEGENEKSSINAQEHTHIRSGLSKKETLYSPMVGNVLPLSKVPDETFSSKLLGEGLAITPSVGEVYAPFDGEIISLFPTKHAIALKDDKGVEVLIHIGIDTVELNGEGFEQLVKVGDFVKRGQLLLRMDIDFISSKGYSLISPVVVTNSIDQLEIIVKDAETMVTNEDDLLVIL” the protein production was “failed”.

With “MEMEMINIRVLRFEPGVDEKPHLESYEIPSKEKMKVLDALQLINKIHGANIAFRSSCRAGQCGSCAVKMNGEVVLACRAEVEDGAIIEPIDLPVIKDLMVDRGEIEEKVKSMQLYLQASSEGIQRIRPEDYLDSKKLRGCIECFSCISSCPVIKESSEYAGPYFMRYLSKFAFDPRDTGDRAQEGVDKGLYCCTTCGKCAEVCPKELNVPGDAIEKLRAMACREGSGPLDAHRRIKKLISETGRSVDRIKDGFIESVGKNPGSRIGFFTGCLVDYRMPEVGMALLRVLREHGFDVDVPEGQVCCGSPMIRTGQVDIVEDLVEKNRKALRDYDTIITVCAGCGATLKKDYPRYGVKLNVLDISEFLADRIDTIKMKPVNMRVTYHDPCHLKRGQGVEFEPRKILRKIPGLEFVEMEKPDQCCGSGGGVKSGKPEVAEALGRKKADMIRELDVDAVVTICPFCQLHIRDSLDLAGLENVRVMNILELLDLAYSD” the protein production was “failed”.

With “MNGPAYEGGFKKFINGEFRMKAEKNLNKTRNISYAGLFFSLALTIFKLFAGLLGHSTALLADAVRSFSELINELVKLLDLSIAGKPEDWSHNYGHGKVATLVTGAGACVLLFAGIQSASLASGELLMFIQGKETEAPELFALSAAAFALVSKEIIPLFSRLAWKQTDKSLSETDIYTGNSRLKSLGLSCFVTLGIGCTFLPGKNWAVTDSLIAVLLSLYLLGSSGRLLYGTANELIEASLDEENNRKIREIINRTEGVLGSGELKTRRIGNGIAINACITVNSSLNIQEVAEIADLAEERLKKAYGEGIYTLIKAEPALERNCSFQKKPKISKEGGNKIIV” the protein production was “failed”.

With “MEVMVFTPKGEIKRLPQGATALDFAYSLHSDLGDHCIGAKVNHKLVPLSYVLNSGDQVEVLSSKSQQPTELEHHHHHH” the protein production was “not failed”.

In the case of “MKRATLPRGRVAGLTAGSLAAVGLALALTLGGVSVVPSGFDGIEDLPLPGGADLGDHPYTVTAELQDVLSLVPHSAVRVNDVAVGRITGIELGEDDWSARVTMEINGEVRLPADATARLEQSSLLGEKYVQLVAPAKETGTGRLTDGSVIPLARTSRNTEVEEVFGALSLLLNGGGVNQLKTITRELNAALGGREPEVRSMLKRVNTLVGDLDDHRGDITDALDAVNRLSSTLATRKDDVGTVLTDLSPGLKTLERQRGSLLTMLRSLDTLSGVAVSTINASKDDMIADLKAVAPTLRALADAGTDLPDSLQVLLTYPFTDEVLRGVKGDYLNTYLSMVAVPGTEVIPPLVDGDTPGPTASATAQDGPDPAAKNPAAKNPISRKRSSGQRGSASPLPLPSVSGAGPASGGEHGLEHHHHHH”, the protein production was “not failed”.

In the case of “MDFLTKLAIAFLIGIMVGVEREHRGLEHEIFAGVRSYSITCITGMLVALASESIGTGFVYVSTLFFAAMCSIITYSKIFLFKRIGVTSPITLFFIFVMGVLVGYDYGLFAIVSSIVVAFLLIQKQPLHQFAGNLTKEELYNAIQFLAVAFILYPVMPEKQFFGLLNLRYAILIVILVSLISFSSYVLLRKFGTKRGLYYSGFLGGFINSEATTGALAGLSKKAEEMAAPVITGILLCNISMLIRNLVLAFIVDPTGRTTMLMLLPQLVLIIVSIGMAYRHSKKVCPIGGGELKIQSPFSLGQAFKFGIAFTLILVIGNFAYNAAGTTGIYLTALGALVSSSGVIVSVTLLAVSGNISYEVAANTAVIASLVSTVNKILLSKISGSSSLFSLAIKDFGIIAATGTLALVILNFL”, the protein production was “failed”.

With “MTIYLHSIQIGVLLFFIFLFISLIPYLIVQYRRYGRINFWRFFVNFSFILYLICAYAMTIFPLPPVSEVAKMTGPKQNLVPFEFVRQFILYSPFNINEPSTWLAALKDSTFIQPFFNLLLTLPFGLYLRYLFKRSFKQTFVLSFLLTLSFELIQRSALFGLYPRPYRLFDVDDLMINTLGSLIGFGIAVTFSRFLPDLDATKAESSRVSLSRRFIAFLVDLVLIFIIGSLFLPIGYYSELIILGLVPLVLKATPGQLLLRIQIKAKNRFRIALRQFLSFGNFALIISAEYFLQRSGTIPQDQLGQNFLLILLFLGLSLLPLLDVLIAFLSKTRKLWYERVSDTEMIAKLKTNEE” the protein production was “failed”.

In the case of “MDLSVVVPTLNARDALLDALDALAAHAPAAEVVVANGPSVDGTSGTVRDHDAVDTLLELSERNLNAARNAGIAATNGTVVAFIGQDTHIQPGWTNAVADAIADGADAVTGPVHRTVEGGVTTESVDEATVSGRDVTFFDGANVAITRRALRALDGFDEALQTGAARDAAHRLAGMDRRVAWAPNACVLRTDADDVIHRLPEDADSSARGLKYRALAYRLTKNYGATAAITARVLRHAVGDAASVGGAVLRGDADLSTWVGAGLAVLPGLWRGSQAGLSARVADRTTTRNPNGVSTRMDRVHARHD”, the protein production was “failed”.

In the case of “MKTSRSSIGKSIFLAATMLATGSAAWAGQAPGALSSPDIPISHHDRVYAAEQFSNTVSVTDPVDNKLLGVIRLGDPQPGNFSPLYKGQVLVHGMGFSPDHKMLAVVSIGSNSVTFIDTATNAVKHTTYIGRSPHEAFFTPDGKEVWVTVRGENYISVIDPQSFEERRRITTPSGPGMQMFSPDGKYAYICSSFNPETDVVAVAEHKIIAKVKQESPFCPNIAVTPDGNQVWFTLKDTGRTQVFNARPPFNPIRTIDTGPITNHVNFAHTARGTFAYVTIGGLNQVKVFRTDDFSQVATIPVGNLPHGVWPSGDGTRIYVGLENADALAAIDTATNSVVANVPIGQAPQAIAYVPGAAPNPDDRQNLQALGVAGQFAHLALASRDGSKDGKAPTSVSLFDQGLIQILQASVTGLEPRQKYVLALAEHGDGSGTLQPLAAFMTNPAGSAIVNAAGPIRQIVDQSAAAARRYLVIASGDVAMPGEAVQIEAQ”, the protein production was “failed”.

For “MKFLPYIFLLCCGLWSTISFADEDYIEYRGISSNNRVTLDPLRLSNKELRWLASKKNLVIAVHKSQTATLLHTDSQQRVRGINADYLNLLKRALNIKLTLREYADHQKAMDALAEGEVDIVLSHLVTSPPLNNDIAATKPLIITFPALVTTFHDSMRPLTSPKPVNIARVANYPPDEVIHQSFPKATIISFTNLYQALASVSAGHNDYFIGSNIITSSMISRYFTHSLNVVKYYNSPRQYNPLLTRKESVILNEVLNRFVDALTNEVRYEVSQNRLDTGNLAFLNKPLELTEHEKQWIKQHPNLKVLENPYSPPYSMTDENGSVRGVMGDILNIITLQTGLNFSPITVSHNIHAGTQLSPGGWDIIPGAIYSEDRENNVLFAEAFITTPYVFVMQKAPDSEQTLKKGMKVAIPYYYELHFELKEMYPEVEWIQVDNASAAFHKVKEGELDALVATQLNSRYMIDHYYPNELYHFLIPGVPNASLSFAFPRGEPELKDIINKALNAIPPSEVLRLTEKWIKMPNVTIDTWDLYSEQFYIVTTLSVLLVGSSLLWGFYLLRSVRRRKVIQGDLENQISFRKALSDSLPNPTYVVNWQGNVISHNSAFEHYFTADYYKNAMLPLENSDSPFKDVFSNAHEVTAETKENRTIYTQVFEIDNGIEKRCINHWHTLCNLPASDNAVYICGWQDITETRDLINALEVEKNKAIKATVAKSQFLATMSHEIRTPISSIMGFLELLSDSGLSKEQRVEAISLAYATKQSVLGLIGEILDVDKIESGNYQLQPQWVDIPTLVQNTCHSFGAIAASKSIALSCSSTFPEHYLVKIDPQAFKQVLSNLLSNALKFTTEGAVKITTSLGHIDDNHAVIKMTIMDSGSGLLQEEQQQLFKRYSQTSAGRQQTGSGLGLMICKELIKNMQGDLSLESHPGIGTTFTITIPVEISQQVATVEAKAEQPITLPEKLSILIADDHPTNRLLLKRQLNLLGYDVDEATDGVQALHKVSMQHYDLLITDVNMPNMDGFELTRKLREQNSSLPIWGLTANAQANEHEKGLSCGMNLCLFKPLTLDVLKTHLSQLYQVAHIAPQYRHLDIEALKNNTANDLQLMQEILMTFQHETHKDLPAAFQALEAGDNRTFHQCIHRIHGAANILNLQKLINISHQLEITPVSDDSKPEILQLLNSVKEHIAELDQEIAVFCQKND”, the protein production was “failed”.

With “KRFEFVGWGSRQLIEFLHSLGKDTSEMISRYDVSDTIAKYISKEGLLDPSNKKKVVCDKRLVLLFGTRTIFRMKVYDLLEKHYKENQD” the protein production was “not failed”.

In the case of “MSSSDIFIGETIGTAVLILLGGGVCAAVTLKASKARNAGWLAITFGWGFAVLTAVYISAPLSGAHLNPAVTLALAIKDNDWSNVPTYWAGQLLGAMIGAALVWVAYYGQFHAHLTDHEIVGGPGAQATKTKAVEAQETGAGPVLGVFSTGPEVRNVVQNLATEIIGTVVLVLAILTQGLNDNGNGLGTIGALITSLVVVSIGLSLGGPTGYAINPARDLGPRIVHALLPLPNKGGSDWSYAWIPVVGPLIGAAIAAGIYNVAFA”, the protein production was “failed”.

With “SSGNHIFKGRAAGIAVNENGKGLITENVIRENQWGGVDIRRGGIPVLRSNLICFGYSDGVVVGDEGKGLIEGNTIYANKGCGVWMMSSSLPHVTSNHVSYNGLYGVAVFSQKDGSSELPRGHRAQENFSEDGDAILWETELEKEDDPLRRPITIALVESNSINHNGASGLYVQSSEALHVITNVIHANGDRGITVAQSSQPTRVANNSISCNRQSGVKVEAQCKVELRGNGIYDNRGHGIITKGDSTIVIENDIIGNRGSGLQLLPRSDTKVIKNRIHSFRAYGIAVRGRAKALVQENIIFQGKTSKTIFQQISNNRECIMQNNKFLVFKKKSDTWR” the protein production was “not failed”.

For “MSALRVTSPSVEYVQRPLGLDAAHPRLSWPMASAAPGRRQSAYQVRVASSAAGLSHPDVWDSGKVVSDDSVLVPYAGPPLKPRTRYFWSVRVWDADGGASEWSAPSWWETGLMGASQWSAKWISAPAPLTEAPSLEGSSWIWFPEGEPANSAPAATRWFRRTVDLPDDITGATLAISADNVYAVSVDGAEVARTDLEADNEGWRRPAVIDVLDHVHSGNNTLAVSASNASVGPAGWICVLVLTTASGEKKIFSDASWKSTDHEPADGWREPDFDDSGWPAAKVAAAWGAGPWGRVAPVASAANQLRHEFRLPHKKVSRARLYATALGLYEAHLNGRRVGRDQLAPGWTDYRKRVQYQTYDVTSSVRPGANALAAYVAPGWYAGNVGMFGPHQYGERPALLAQLEVEYADGTSERITSGPDWRAASGPIVSADLLSGETYDARKETAGWTSPGFDDRAWLAVRGADNDVPEQIVAQVDGPVRIAKELPARKVTEPKPGVFVLDLGQNMVGSVRLRVSGDAGTTVRLRHAEVLNPDGTIYTANLRSAAATDTYTLKGQGEETYEPRFTFHGFRYVEVTGFPGKPSTTSVTGRVMHTSAPFTFEFETNVPMLNKLHSNITWGQRGNFLSVPTDTPARDERLGWTGDINVFAPTAAYTMESARFLTKWLVDLRDAQTSDGAFTDVAPAVGNLGNGVAGWGDAGVTVPWALYQAYGDRQVLADALPSVHAWLRYLEKHSDGLLRPADGYGDWLNVSDETPKDVIATAYFAHSADLAARMATELGKDAAPYTDLFTRIRKAFQTAYVASDGKVKGDTQSAYVLTLSMNLVPDALRKAAADRLVALIEAKDWHLSTGFLGTPRLLPVLTDTGHTDVAYRLLHQRTFPSWGYPIDKGSTTMWERWDSIQPDGGFQTPEMNSFNHYAYGSVGEWMYANIAGIAPGRAGYRQVVIRPRPGGEVTSARATFASLHGPVSTRWQQRSGGFVLTCSVPPNTTAEVWIPADHPDRVQHTHGTFVRAEDGCAVFEVGSGSHRFTV”, the protein production was “failed”.

From a protein production outcome set (Wang et al. 2014)
